{"source": "patent US20060153844A1", "about": "“Methods to trigger, maintain and manipulate immune responses by targeted administration of biological response modifiers into lymphoid organs” (priority 2004, published 2006)", "system": "PLA2-specific IgG2a and IgG1 antibodies", "assay": "anti-PLA2 IgG2a, IgG1 and IgE in sera after intralymphatic PLA2 plus TLR ligand", "assay_type": "in vivo, CBA/J mice", "procedure": "The compounds were mixed within an hour before injection into the inguinal lymph node.\nThe sera were obtained over 13 weeks and analyzed by ELISA for anti-PLA2 IgG2a (FIG. 10A) and IgG1 (FIG. 10B). The ratio of IgG2a to IgG1 titers was calculated as a measure for Th1/Th2 immune response balance (FIG. 10C). […] Pre-immunization levels of anti-PLA2 antibodies were measured on sera from five mice taken the day before first injection."}
{"molecule": "flagellin: flagellin, S. thyphimurium, TLR 5 ligand (protein, UniProt P06179 2-495, looked up) Flagellin: AQVINTNSLSLLTQNNLNKSQSALGTAIERLSSGLRINSAKDDAAGQAIANRFTANIKGLTQASRNANDGISIAQTTEGALNEINNNLQRVRELAVQSANSTNSQSDLDSIQAEITQRLNEIDRVSGQTQFNGVKVLAQDNTLTIQVGANDGETIDIDLKQINSQTLGLDTLNVQQKYKVSDTAATVTGYADTTIALDNSTFKASATGLGGTDQKIDGDLKFDDTTGKYYAKVTVTGGTGKDGYYEVSVDKTNGEVTLAGGATSPLTGGLPATATEDVKNVQVANADLTEAKAALTAAGVTGTASVVKMSYTDNNGKTIDGGLAVKVGDDYYSATQNKDGSISINTTKYTADDGTSKTALNKLGGADGKTEVVSIGGKTYAASKAEGHNFKAQPDLAEAAATTTENPLQKIDAALAQVDTLRSDLGAVQNRFNSAITNLGNTVNNLTSARSRIEDSDYATEVSNMSRAQILQQAGTSVLAQANQVPQNVLSLLR", "values": [{"measurement": "kinetics of the antibody production (time of maximum titers)", "setting": "i.ln. with 0.1 μg PLA2, sera over 13 weeks", "value": "peak titers were delayed"}, {"measurement": "anti-PLA2 antibody isotypes induced (IgG2a, IgG1)", "setting": "i.ln. with 0.1 μg PLA2, three injections", "value": "induced both IgG2a and IgG1"}]}
